Data as given in patent CN116355088A.

Experiments:
生物素标记的抗原多肽 (human) = 生物素标记的抗原多肽 (human) (UniProt P29400); assay: BLI (Fortebio Octet), biotinylated peptide on SA biosensor, antibody at 100 to 1.56 nM
人IV型胶原蛋白α5链多肽 (human) = 人IV型胶原蛋白α5链多肽 (human) (UniProt P29400); assay: indirect ELISA, plate coated with 0.5 μg/ml peptide, purified antibody in 3-fold dilutions from 1 μg/ml

B1: 18G6-2 (antibody, V domains shown)
VH: QVQLQQPGAELVKPGASVKVSCKASGYTFTNYWMHWVKQRPGQGLEWIGRIHPSDSAINYSPKFTGKATLTVDKSSSTAYMQLTSLTSEDSAVYYCAIGGYDSYWGQGTLVTVSA
VL: DIQMTQTTSSLSASLGDRVTISCRASQDISNYLNWYQQKPDGTVKLLIYYTSTLHSGVPSRFSGSGSGTDYSLTINSLAQEDIATYFCQQVNTLPWTFGGGTKLAIK
B1 was tested, and the Kd (生物素标记的抗原多肽 (human)) was 3.18 nM and the EC50 (人IV型胶原蛋白α5链多肽 (human)) was 0.0221 µg/mL.
